Patent US20210087295A1 (University of Pennsylvania, published 2021)

Tests used:
[1] = molecular target: T1, murine fibroblast activation protein (FAP) (mouse, UniProt P97321 1-761); experiment: flow cytometry, hybridoma supernatant on BALB/c 3T3 cells with a murine FAP transgene
T1 construct: whole, on cells; also called mouse FAP; muFAP
T1 sequence (looked up): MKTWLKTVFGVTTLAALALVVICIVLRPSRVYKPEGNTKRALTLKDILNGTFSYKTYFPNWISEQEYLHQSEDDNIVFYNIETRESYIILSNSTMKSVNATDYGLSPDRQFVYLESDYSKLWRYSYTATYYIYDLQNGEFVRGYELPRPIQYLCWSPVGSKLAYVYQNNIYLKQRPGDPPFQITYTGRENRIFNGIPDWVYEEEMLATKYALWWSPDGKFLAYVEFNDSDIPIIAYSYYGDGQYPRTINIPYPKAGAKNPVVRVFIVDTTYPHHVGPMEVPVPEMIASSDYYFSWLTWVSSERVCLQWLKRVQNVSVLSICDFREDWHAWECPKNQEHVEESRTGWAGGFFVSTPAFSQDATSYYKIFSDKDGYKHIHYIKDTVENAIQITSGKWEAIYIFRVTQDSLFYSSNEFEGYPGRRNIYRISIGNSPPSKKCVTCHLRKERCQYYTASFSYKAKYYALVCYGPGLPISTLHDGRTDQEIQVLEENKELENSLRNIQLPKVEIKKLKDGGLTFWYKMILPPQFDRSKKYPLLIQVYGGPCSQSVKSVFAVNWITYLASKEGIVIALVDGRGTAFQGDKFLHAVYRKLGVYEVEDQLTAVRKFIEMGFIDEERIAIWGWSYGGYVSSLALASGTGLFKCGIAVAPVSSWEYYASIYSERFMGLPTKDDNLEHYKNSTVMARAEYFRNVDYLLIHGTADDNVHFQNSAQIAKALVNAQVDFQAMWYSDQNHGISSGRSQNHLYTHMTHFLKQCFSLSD
Protocol: (§1) BALB/c 3T3 cells expressing full-length canine FAP were used to immunize 14 week old BALB/c.FAP^{-/-} mice. All injections were given intraperitoneally and consisted of 1×10⁷ cells in 0.5 ml sterile PBS. An initial immunization was followed by boosts on days 14 and 28; animals were then bled on day 42 followed a boost on day 56, bleeding on day 63, and three more boosts on days 70, 217, and 238. On day 241, […] spleens were harvested, a single cell suspension prepared, and splenocytes fused with sp2/0 cells by the UPENN Hybridoma Core Facility. Hybridoma supernatant were initially screened by FACS on MC KOSA parental (FAP null) vs. canine FAP-transgene expressing MC KOSA.K9FAP using hybridoma supernatants as the primary antibodies and AF488 goat anti-mouse IgG as a secondary. Clone 4G5 was identified as reactive to transduced cells but not parental cells and screened on additional cells to confirm reactivity with FAP expressing but not FAP-negative cells: Human primary fibroblasts, BALB/c 3T3 expressing murine or human FAP transgenes, canine primary fibroblasts, SK KOSA (FAP expressing), and BALB/c 3T3 (FAP negative) cells. 4G5 was then determined to be an IgG1k isotype antibody using Thermo Fisher Rapid ELISA Mouse mAb Isotyping Kit #37503.
(§2) BALB/c 3T3 fibroblast cells transduced to express full-length canine FAP were used to immunize 14 week old BALB/c FAP^{-/-} mice. […]

[2] = molecular target: T2, human fibroblast activation protein (FAP) (human, UniProt Q12884 1-760); experiment: flow cytometry, hybridoma supernatant on human primary fibroblasts and BALB/c 3T3 cells with a human FAP transgene
T2 construct: whole, on cells; also called human FAP; huFAP
T2 sequence (looked up): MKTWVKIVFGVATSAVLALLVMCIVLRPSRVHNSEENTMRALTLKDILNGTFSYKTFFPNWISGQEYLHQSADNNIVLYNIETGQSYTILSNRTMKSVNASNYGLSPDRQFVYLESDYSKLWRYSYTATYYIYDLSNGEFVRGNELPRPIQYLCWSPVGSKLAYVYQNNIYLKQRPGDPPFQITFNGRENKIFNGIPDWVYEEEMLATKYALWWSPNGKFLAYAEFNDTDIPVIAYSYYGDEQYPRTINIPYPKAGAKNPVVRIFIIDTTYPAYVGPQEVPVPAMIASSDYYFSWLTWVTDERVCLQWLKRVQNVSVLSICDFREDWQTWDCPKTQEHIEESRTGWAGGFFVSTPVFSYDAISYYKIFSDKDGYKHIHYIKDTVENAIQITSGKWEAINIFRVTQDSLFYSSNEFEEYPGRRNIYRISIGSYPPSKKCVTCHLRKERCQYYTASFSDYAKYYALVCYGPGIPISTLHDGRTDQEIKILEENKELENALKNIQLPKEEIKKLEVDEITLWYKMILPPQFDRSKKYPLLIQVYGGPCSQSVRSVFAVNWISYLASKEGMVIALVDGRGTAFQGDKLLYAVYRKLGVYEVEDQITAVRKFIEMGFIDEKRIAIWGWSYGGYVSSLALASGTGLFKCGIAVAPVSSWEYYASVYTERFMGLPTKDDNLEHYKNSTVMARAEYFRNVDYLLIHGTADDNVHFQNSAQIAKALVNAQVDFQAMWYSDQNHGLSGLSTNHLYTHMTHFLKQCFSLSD
Protocol: as §1, §2

B1: clone 4G5 anti-FAP antibody (antibody, mouse IgG1, V domains shown)
VH: QVQLQQPGAELVKPGASVKLSCKASGYTITSYSLHWVKQRPGQGLEWIGEINPANGDHNFSEKFEIKATLTVDSSSNTAFMQLSRLTSEDSAVYYCTRLDDSRFHWYFDVWGAGTTVTVSS
VL: QIVLTQSPALMSASPGEKVTMTCTASSSVSYMYWYQQKPRSSPKPWIFLTSNLASGVPARFSGRGSGTSFSLTISSMEAEDAATYYCQQWSGYPPITFGSGTKLEIK
notes: Mouse IgG1 kappa antibody from a hybridoma, used as hybridoma supernatant in flow cytometry; also called 4G5 immunoglobulin; monoclonal 4G5 antibody
B1: binds [1]; binds [2].
